Test results taken from patent US20260167728A1 (published 2026).

Columns and labels:
human EGFR [1] = biological target: T1, human EGFR (human, UniProt P00533 25-645, limits assumed); test: BLI, room temperature
T1 construct: on HT-29 cells in the cytotoxicity assay; also called epidermal growth factor receptor

human CD3 [2] = biological target: T2, human CD3 (human, UniProt P07766 23-126); test: method not stated
human EGFR [3] = biological target: T1, human EGFR; test: cell-based or functional assay
huCD3e = huCD3e (human, UniProt P07766 23-126); test: Octet primary screen, crude lysate
huCD3e, sequence (P07766 23-126): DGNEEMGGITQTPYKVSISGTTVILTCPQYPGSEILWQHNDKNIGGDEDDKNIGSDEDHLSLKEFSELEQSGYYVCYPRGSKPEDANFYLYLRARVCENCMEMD
Description: Stability and affinity of the individually expressed molecules in the form of crude lysate was evaluated by Octet. […] The binding of these anti-CD3 molecules (CD3.227, CD3.228, CD3.229 and CD3.230) to human and cynomolgus CD3 was measured by Octet and the Tₘ was measured by Differential Scanning Fluorimetry. All variants were paired with an anti-PSMA VHH.

cyCD3e-Fc = biological target: T3, cyCD3e-Fc (cynomolgus, UniProt Q95LI5 22-117); test: Octet, purified paTCE
T3 construct: not shown: Fc, not described
T3 sequence (looked up): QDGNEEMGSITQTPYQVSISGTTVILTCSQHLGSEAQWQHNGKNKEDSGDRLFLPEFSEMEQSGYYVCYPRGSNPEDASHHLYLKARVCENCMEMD
Description: (§1) […] […] The binding of these anti-CD3 molecules (CD3.227, CD3.228, CD3.229 and CD3.230) to human and cynomolgus CD3 was measured by Octet and the Tₘ was measured by Differential Scanning Fluorimetry. All variants were paired with an anti-PSMA VHH.

huCD3e-Fc = biological target: T4, huCD3e-Fc (human, UniProt P07766 23-126); test: Octet, purified paTCE
T4 construct: not shown: Fc, not described
T4 sequence (P07766 23-126): as the sequence (P07766 23-126) above
Description: as §1

human CD3 [4] = biological target: T2, human CD3; test: Octet, crude lysate
Description: Structural considerations included: possible contact disruption, anticipated steric clashes, side chain charge maintenance and possible pockets filling. Stability and affinity of the individually expressed molecules in the form of crude lysate was evaluated by Octet (ForteBio).

T2 sequence (P07766 23-126 limits assumed): as the sequence (P07766 23-126) above

B1: AC2908 (EGFR.60/CD3.23 paTCE) (bispecific antibody)
scFv 1: EIVLTQSPGTLSLSPGERATLSCQASQDISNYLNWYQQKPGQAPRLLIYDASNLETGIPDRFSGSGSGTDFTLTISRLEPEDFAVYYCQHFDHLPLAFGQGTKVEIKGATPPETGAETESPGETTGGSAESEPPGEGQVQLQQWGAGLLKPSETLSLTCAVYGGSVSSGDYYWTWIRQPPGKGLEWIGHIYYSGNTNYNPSLKSRVTISVDTSKNQFSLKLSSVTAADTAVYYCARDRVTGAFDIWGQGTLVTVSS
scFv 2: ELVVTQEPSLTVSPGGTVTLTCRSSNGAVTSSNYANWVQQKPGQAPRGLIGGTNKRAPGTPARFSGSLLGGKAALTLSGVQPEDEAVYYCALWYPNLWVFGGGTKLTVLGATPPETGAETESPGETTGGSAESEPPGEGEVQLLESGGGIVQPGGSLKLSCAASGFTFNTYAMNWVRQAPGKGLEWVARIRSKYNNYATYYADSVKDRFTISRDDSKNTVYLQMNNLKTEDTAVYYCVRHENFGNSYVSWFAHWGQGTLVTVSS
notes: EGFR library format (remarks)
- Kd (human EGFR [1]): 7.3 nM
- Kd (human CD3 [2]): ~203 nM
- EC50 HT-29 (pM), in vitro cytotoxicity, E:T 5:1 (human EGFR [3]): 94 pM

B2: AC2920 (EGFR.72/CD3.23 paTCE) (bispecific antibody)
scFv 1: EIVLTQSPATLSLSPGERATLSCQASQDISNYLNWYQQKPGQAPRLLIYDASNLETGIPARFSGSGSGTDFTLTISSLEPEDFAVYYCQHFDHLPLAFGQGTKVEIKGATPPETGAETESPGETTGGSAESEPPGEGQVQLQQWGAGLLKPSETLSLTCAVYGGSVSSGDYYWTWIRQPPGKGLEWIGHIYYSGNTNYNPSLKSRVTISVDTSKNQFSLKLSSVTAADTAVYYCARDRVTGAFDIWGQGTLVTVSS
scFv 2: ELVVTQEPSLTVSPGGTVTLTCRSSNGAVTSSNYANWVQQKPGQAPRGLIGGTNKRAPGTPARFSGSLLGGKAALTLSGVQPEDEAVYYCALWYPNLWVFGGGTKLTVLGATPPETGAETESPGETTGGSAESEPPGEGEVQLLESGGGIVQPGGSLKLSCAASGFTFNTYAMNWVRQAPGKGLEWVARIRSKYNNYATYYADSVKDRFTISRDDSKNTVYLQMNNLKTEDTAVYYCVRHENFGNSYVSWFAHWGQGTLVTVSS
notes: EGFR library format (remarks)
- Kd (human EGFR [1]): 4.4 nM
- Kd (human CD3 [2]): ~203 nM
- EC50 HT-29 (pM), in vitro cytotoxicity, E:T 5:1 (human EGFR [3]): 85 pM

B3: AC2717 (CD3.23, WT) (bispecific antibody, V domains shown)
VH: EVQLLESGGGIVQPGGSLKLSCAASGFTFNTYAMNWVRQAPGKGLEWVARIRSKYNNYATYYADSVKDRFTISRDDSKNTVYLQMNNLKTEDTAVYYCVRHENFGNSYVSWFAHWGQGTLVTVSS
VL: ELVVTQEPSLTVSPGGTVTLTCRSSNGAVTSSNYANWVQQKPGQAPRGLIGGTNKRAPGTPARFSGSLLGGKAALTLSGVQPEDEAVYYCALWYPNLWVFGGGTKLTVL
notes: Pool 2 format (remarks); paired with an anti-PSMA VHH variant
- Kd (huCD3e): 12.9 nM

B4: CD3.23 anti-CD3 scFv (scFv, V domains shown)
VH: EVQLLESGGGIVQPGGSLKLSCAASGFTFNTYAMNWVRQAPGKGLEWVARIRSKYNNYATYYADSVKDRFTISRDDSKNTVYLQMNNLKTEDTAVYYCVRHENFGNSYVSWFAHWGQGTLVTVSS
VL: ELVVTQEPSLTVSPGGTVTLTCRSSNGAVTSSNYANWVQQKPGQAPRGLIGGTNKRAPGTPARFSGSLLGGKAALTLSGVQPEDEAVYYCALWYPNLWVFGGGTKLTVL
notes: Parental domain
- Kd (cyCD3e-Fc): 130 nM
- koff (cyCD3e-Fc): 0.0312 s⁻¹
- kon (cyCD3e-Fc): 240000 M⁻¹ s⁻¹
- Kd (huCD3e-Fc): 131 nM
- koff (huCD3e-Fc): 0.0289 s⁻¹
- kon (huCD3e-Fc): 220000 M⁻¹ s⁻¹

B5: AC3364 (CD3.23-L7, WT) (bispecific antibody, V domains shown)
VH: EVQLLESGGGIVQPGGSLKLSCAASGFTFNTYAMNWVRQAPGKGLEWVARIRSKYNNYATYYADSVKDRFTISRDDSKNTVYLQMNNLKTEDTAVYYCVRHENFGNSYVSWFAHWGQGTLVTVSS
VL: ELVVTQEPSLTVSPGGTVTLTCRSSNGAVTSSNYANWVQQKPGQAPRGLIGGTNKRAPGTPARFSGSLLGGKAALTLSGVQPEDEAVYYCALWYPNLWVFGGGTKLTVL
notes: Pool 1 format (remarks)
- Kd (human CD3 [4]): 8.5 nM
